Data taken from patent publication US20020039776.

Chain of GST-EZH2(382-747) (chain, as listed by the source): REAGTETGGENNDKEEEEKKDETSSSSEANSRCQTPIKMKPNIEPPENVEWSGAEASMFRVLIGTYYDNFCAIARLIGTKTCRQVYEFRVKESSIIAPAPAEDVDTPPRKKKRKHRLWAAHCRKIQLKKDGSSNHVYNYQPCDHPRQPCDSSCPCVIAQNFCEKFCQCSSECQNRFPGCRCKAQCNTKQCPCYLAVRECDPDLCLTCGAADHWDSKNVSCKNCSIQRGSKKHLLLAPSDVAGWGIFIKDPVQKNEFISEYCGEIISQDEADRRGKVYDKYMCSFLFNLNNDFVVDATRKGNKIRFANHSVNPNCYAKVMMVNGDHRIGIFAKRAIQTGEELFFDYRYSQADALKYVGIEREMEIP

Each substance was assayed on free histones (mixture of H1, H3, H2B, H2A and H4; Boehringer Mannheim).
For GST-EZH2(382-747), the HMTase activity was “had undetectable HMTase activity towards free histones”. With GST-HRX(3643-3969) the HMTase activity was “had undetectable HMTase activity towards free histones”. In the case of GST-Suv39h2(157-477), the HMTase activity was “The SU(VAR)3-9 family members assayed, SUV39H1, Suv39h2 and CLR4, displayed HMTase activity”.
